Laboratory results from US20110008814A1.

Assays:
[1] = target: mouse IgG, anti-human transferrin monoclonal antibody (mfd. by BIO MATRIX RESEARCH, INC.); assay: human transferrin sandwich ELISA, 100 ng/ml transferrin, 375 ng/ml labeled antibody, ABTS
[2] = target: mouse IgG, anti-human transferrin monoclonal antibody (mfd. by BIO MATRIX RESEARCH, INC.); assay: human transferrin sandwich ELISA, 100 ng/ml transferrin, ABTS; reference Comparative Example 3
[3] = target: mouse IgG, anti-human transferrin monoclonal antibody (mfd. by BIO MATRIX RESEARCH, INC.); assay: human transferrin sandwich ELISA, 1 ng/ml transferrin, luminol emission; reference Comparative Example 7
[4] = target: mouse IgG, anti-human transferrin monoclonal antibody (mfd. by BIO MATRIX RESEARCH, INC.); assay: human transferrin sandwich ELISA, 1 ng/ml transferrin, luminol emission
[5] = target: mouse IgG, anti-human transferrin monoclonal antibody (mfd. by BIO MATRIX RESEARCH, INC.); assay: direct ELISA on immobilized mouse IgG, ABTS; reference Comparative Examples 1 and 2
[6] = target: mouse IgG, anti-human transferrin monoclonal antibody (mfd. by BIO MATRIX RESEARCH, INC.); assay: direct ELISA, mouse IgG immobilized from 10 ng/ml, about 0.8 µg/ml secondary antibody, ABTS
[7] = target: mouse IgG, anti-human transferrin monoclonal antibody (mfd. by BIO MATRIX RESEARCH, INC.); assay: human transferrin sandwich ELISA, 100 ng/ml transferrin, luminol emission; reference Comparative Examples 6 to 8
[8] = target: mouse IgG, anti-human transferrin monoclonal antibody (mfd. by BIO MATRIX RESEARCH, INC.); assay: direct ELISA, mouse IgG immobilized from 100 ng/ml, about 0.8 µg/ml secondary antibody, ABTS
[9] = target: mouse IgG, anti-human transferrin monoclonal antibody (mfd. by BIO MATRIX RESEARCH, INC.); assay: human transferrin sandwich ELISA, 100 ng/ml transferrin, luminol emission
[10] = target: mouse IgG, anti-human transferrin monoclonal antibody (mfd. by BIO MATRIX RESEARCH, INC.); assay: human transferrin sandwich ELISA, 1 ng/ml transferrin, luminol emission; reference horseradish POD-labeled antibodies
[11] = target: mouse IgG, anti-human transferrin monoclonal antibody (mfd. by BIO MATRIX RESEARCH, INC.); assay: human transferrin sandwich ELISA, 100 ng/ml transferrin, 400 ng/ml labeled antibody, ABTS

absorbance at 405 nm [1]	fold of absorbance against the horseradish POD-labeled antibody [2]	fold of initial stage emission value against the horseradish POD-labeled antibody [3]	initial stage emission value [4]	fold of absorbance against the horseradish POD-labeled antibody [5]	absorbance at 405 nm [6]	fold of initial stage emission value against the horseradish POD-labeled antibodies [7]	absorbance at 405 nm [8]	initial stage emission value [9]	fold of initial stage emission value against the horseradish POD-labeled antibodies [10]	absorbance at 405 nm [11]	Substance
1	2.2 times	8 times	800000 RLU	1.3 to 1.4 times	0.4	> 18 times	1.9	4.2e+06 RLU			POD-labeled anti-mouse Fab′ (goat anti-mouse IgG (H+L) antibody, Bethyl A90-116A, pepsin-digested and reduced to Fab′, labeled with maleimidated POD)
			300000 RLU			> 14 times		3.5e+06 RLU	> 3 times		POD-labeled anti-mouse IgG (goat anti-mouse IgG (H+L) antibody, Bethyl A90-116A, reduced and labeled with maleimidated POD)
					0.3		1.4			0.45	Peroxidase-conjugated AffiniPure F(ab′)2 Fragment Goat Anti-mouse IgG (H+L) (mfd. by Jackson ImmunoResearch Labs.)
			100000 RLU		0.3		1.4				Peroxidase-conjugated AffiniPure Goat Anti-mouse IgG (H+L) (mfd. by Jackson ImmunoResearch Labs.) (antibody)
